Values of other authors in patent US8865021B2, “Compositions of lipids and cationic peptides” (Camurus AB, priority 2003, dated 2014).
Residues, ends and D or L forms follow the SMILES beside them. No end group written: not given here.

B1: IL-19 (protein, UniProt Q9UHD0 25-177, looked up)
Interleukin-19: LRRCLISTDMHHIEESFQEIKRAIQAKDTFPNVTILSTLETLQIIKPLDVCCVTKNLLAFYVDRVFKDHQEPNPKILRKISSIANSFLYMQKTLRQCQEQRQCHCRQEATNATRVIHDNYDQLEVHAAAIKSLGELDVFLAWINKNHEVMFSA
notes: Melanoma differentiation associated protein-like protein
B2: IL-11 (protein, UniProt P20809 22-199, looked up)
Interleukin-11: PGPPPGPPRVSPDPRAELDSTVLLTRSLLADTRQLAAQLRDKFPADGDHNLDSLPTLAMSAGALGALQLPGVLTRLRADLLSYLRHVQWLRRAGGSSLKTLEPELGTLQARLDRLLRRLQLLMSRLALPQPPPDPPAPPLAPPSSAWGGIRAAHAILGGLHLTLDWAVRGLLLLKTRL
B3: Filgrastim (protein, UniProt P09919 31-207, looked up)
Granulocyte …: TPLGPASSLPQSFLLKCLEQVRKIQGDGAALQEKLVSECATYKLCHPEELVLLGHSLGIPWAPLSSCPSQALQLAGCLSQLHSGLFLYQGLLQALEGISPELGPTLDTLQLDVADFATTIWQQMEELGMAPALQPTQGAMPAFASAFQRRAGGVLVASHLQSFLEVSYRVLRHLAQP
modifications: N-terminal methionine, non-glycosylated
notes: neutropenia
B4: Interferon-alpha 1/13 (protein, UniProt P01562 24-189, looked up)
Interferon alpha-1/13: CDLPETHSLDNRRTLMLLAQMSRISPSSCLMDRHDFGFPQEEFDGNQFQKAPAISVLHELIQQIFNLFTTKDSSAAWDEDLLDKFCTELYQQLNDLEACVMQEERVGETPLMNADSILAVKKYFRRITLYLTEKKYSPCAWEVVRAEIMRSLSLSTNLQERLRRKE
B5: human Chorionic Gonadotropin-beta (protein, UniProt P0DN86 21-165, looked up)
Choriogonadotropin subunit …: SKEPLRPRCRPINATLAVEKEGCPVCITVNTTICAGYCPTMTRVLQGVLPALPQVVCNYRDVRFESIRLPGCPRGVNPVVSYAVALSCQCALCRRSTTDCGGPKDHPLTCDDPRFQDSSSSKAPPPSLPSPSRLPGPSDTPILPQ
notes: Infertility
B6: Interferon-gamma (protein, UniProt P01579 24-161, looked up)
Interferon gamma: QDPYVKEAENLKKYFNAGHSDVADNGTLFLGILKNWKEESDRKIMQSQIVSFYFKLFKNFKDDQSIQKSVETIKEDMNVKFFNSNKKKRDDFEKLTNYSVTDLNVQRKAIHELIQVMAELSPAAKTGKRKRSQMLFRG
B7: IL-24 (protein, UniProt Q13007 52-206, looked up)
Interleukin-24: QEFHFGPCQVKGVVPQKLWEAFWAVKDTMQAQDNITSARLLQQEVLQNVSDAESCYLVHTLLEFYLKTVFKNYHNRTVEVRTLKSFSTLANNFVLIVSQLQPSQENEMFSIRDSAHRRFLLFRRAFKQLDVEAALTKALGEVDILLTWMQKFYKL
notes: Melanoma differentiation associated protein 7
B8: IL-26 (protein, UniProt Q9NPH9 22-171, looked up)
Interleukin-26: KHKQSSFTKSCYPRGTLSQAVDALYIKAAWLKATIPEDRIKNIRLLKKKTKKQFMKNCQFQEQLLSFFMEDVFGQLQLQGCKKIRFVEDFHSLRQKLSHCISCASSAREMKSITRMKRIFYRIGNKGIYKAISELDILLSWIKKLLESSQ

Columns and labels:
[1] = for Isoelectric pH: Table 2; for isoelectric point: approximate values
[2] = salmon vs human calcitonin

Molecule	Isoelectric pH [1] [pH]	isoelectric point [1]	potency by weight relative to the human hormone [2]
CC[C@H](C)[C@@H]1NC(=O)[C@H](Cc2ccc(O)cc2)NC(=O)[C@@H](N)CSSC[C@@H](C(=O)N2CCC[C@H]2C(=O)N[C@@H](CC(C)C)C(=O)NCC(N)=O)NC(=O)[C@H](CC(N)=O)NC(=O)[C@H](CCC(N)=O)NC1=O [Oxytocin, reference compound]	5.51		
CC(C)[C@@H]1NC(=O)[C@H](CCCNC(=N)N)NC(=O)[C@H](Cc2ccccc2)NC(=O)[C@@H](NC(=O)[C@H](Cc2c[nH]c3ccccc23)NC(=O)[C@H](CCCNC(=N)N)NC(=O)[C@@H](N)CCCNC(=N)N)CSSC[C@@H](C(=O)N[C@@H](CCCNC(=N)N)C(N)=O)NC(=O)[C@H](CCCCN)NC(=O)[C@H](CCCNC(=N)N)NC(=O)[C@H](Cc2ccc(O)cc2)NC(=O)[C@@H]2CSSC[C@H](NC1=O)C(=O)N[C@@H](Cc1ccc(O)cc1)C(=O)N[C@@H](CCCCN)C(=O)NCC(=O)N[C@@H](Cc1ccccc1)C(=O)N2 [Polyphemusin II] (HELM PEPTIDE1{R.R.W.C.F.R.V.C.Y.K.G.F.C.Y.R.K.C.R.[am]}$PEPTIDE1,PEPTIDE1,4:R3-17:R3|PEPTIDE1,PEPTIDE1,8:R3-13:R3$$$V2.0)	10.1		
NC(=O)CC[C@@H]1NC(=O)[C@H](Cc2ccccc2)NC(=O)[C@H](Cc2ccc(O)cc2)NC(=O)[C@@H](N)CSSC[C@@H](C(=O)N2CCC[C@H]2C(=O)N[C@@H](CCCN=C(N)N)C(=O)NCC(N)=O)NC(=O)[C@H](CC(N)=O)NC1=O [Vassopresin, reference compound]	8.06	around 8.0 pH	
Alteplase	7.61		
Becaplermin	9.38		
Calcitonin (salmon) [reference compound]	8.86	~8.9 pH	around 50 times
Follitropin-beta	5.91		
GMCSF	5.21		
IL-1 beta	5.91		
IL-1alpha	5.3		
IL-4	9.26		
IL-5	7.02		
IL-6	6.21		
IL-7	8.72		
IL-8	9.24		
IL-10	7.63		
IL-13	8.81		
IL-15	4.52		
IL-17	8.62		
IL-18	5.04		
Indolicidin (ILPWKWPWWPWRR; ends and bridges not checked; UniProt P33046 131-143, looked up) [Indolicidin (e.g. bovine), antibacterial, antifungal, anticancer, antiviral, antiparasite]	12.01		
Insulin α	3.79	around 4 pH	
Intercellular Adhesion Molecule 1	9.51		

Molecule	Isoelectric pH [1] [pH]	isoelectric point [1]	potency by weight relative to the human hormone [2]
Interleukin-1 receptor antagonist	8.51		
Lepirudin	4.04	around 4 pH	
Magainin I	10		
Magainin II	10		
Mellitin	12.02		
OspA	6.72		
Pneumadin	4.36		
Polyphemusin I (RRWCFRVCYRGFCYRKCR; ends and bridges not checked; cysteine pairing not given here; UniProt P14215 1-18, looked up) [antibacterial, antifungal, antiviral]	10.33		
Protegrin [Protegrin (e.g. swine)]	10.66		
Secretin (HSDGTFTSELSRLRDSARLQRLLQGLV; ends and bridges not checked; UniProt P63298 33-59, looked up) [Secretin (e.g. swine), pancreatic assessment, 27 amino acids, reference compound]	9.45		
Somatostatin [Somatostatin (& analogues), reference compound]	9.58		
Somatotropin	5.27		
Tachyplesin I (KWCFRVCYRGICYRRCR; ends and bridges not checked; cysteine pairing not given here; UniProt P14213 24-40, looked up) [antibacterial, antiviral, 17 amino acids]	9.93		
Tuftsin	11		
octreotide [reference compound]		around 8.0 pH	
B1	7.8		
B2	11.16		
B3	5.43		
B4	5.18		
B5	8.65		
B6	9.54		
B7	8.6		
B8	9.99		
